Measured values reported in US12091776B2, “Protease activity profiling via programmable phage display of comprehensive proteome-scale peptide libraries” (THE JOHNS HOPKINS UNIVERSITY, priority 2019, dated 2024).

T1: Caspase-1 (Homo sapiens, UniProt P29466)
T1 construct: purchased BioVision
T1 sequence (P29466 120-297 limits assumed): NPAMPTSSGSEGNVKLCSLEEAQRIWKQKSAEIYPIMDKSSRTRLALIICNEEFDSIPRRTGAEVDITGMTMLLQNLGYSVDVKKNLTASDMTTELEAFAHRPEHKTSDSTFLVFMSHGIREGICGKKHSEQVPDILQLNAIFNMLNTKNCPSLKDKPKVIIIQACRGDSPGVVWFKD
T1 sequence (P29466 317-404 limits assumed): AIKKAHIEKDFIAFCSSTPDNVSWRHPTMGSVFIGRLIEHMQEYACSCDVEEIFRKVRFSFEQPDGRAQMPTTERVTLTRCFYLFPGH

B1: ZNF469 811-900: 90-aa human peptidome tile displayed on T7 phage (protein, UniProt Q96JG9 811-900, looked up, fragment)
chain: PLRTGFLPSLAATPFPLPASDLDMEDDAKLDSLITEALNGMEYQSDNPEIDSSFIDVFADEEPSGPRGPSSGHPLKSKAGVTPESKAPPP
modifications: displayed on T7 phage
B2: UHRF1BP1L 991-1080: 90-aa human peptidome tile displayed on T7 phage (protein, UniProt A0JNW5 991-1080, looked up, fragment)
chain: EIGSETSDKKDSFYTDSSSILNYREDSNILSFDSDGNQNILSSTLTSKGNETIESIFKAEDLLPEAASLSENLDISKEETPPVRTLKSQS
modifications: displayed on T7 phage
B3: Znf462 1-90: 90-aa human peptidome tile displayed on T7 phage (protein, UniProt Q96JM2 1-90, looked up, fragment)
chain: MEVLQCDGCDFRAPSYEDLKAHIQDVHTAFLQPTDVAEDNVNELRCGSVNASNQTEVEFSSIKDEFAIAEDLSGQNATSLGTGGYYGHSP
modifications: displayed on T7 phage
B4: HUWE1 2251-2340: 90-aa human peptidome tile of HUWE1 displayed on T7 phage (protein, UniProt Q7Z6Z7 2251-2340, looked up, fragment)
chain: ETLSRIVNQPSSLFGSKSASSKNKSEQDAQGASQDSSSNQQDPGEPGEAEVQEEDHDVTQTEVADGDIMDGEAETDSVVIAGQPEVLSSQ
modifications: displayed on T7 phage
B5: BSN 631-720: 90-aa human peptidome tile displayed on T7 phage (protein, UniProt Q9UPA5 631-720, looked up, fragment)
chain: ATPKVKSGVRRAEPATPVVKAVPEAPKGGEAEDLVGKPYSQDASRSPQSLSDTGYSSDGISSSQSEITGVVQQEVEQLDSAGVTGPHPPS
modifications: displayed on T7 phage
B6: HUWE1 2296-2485: 90-aa human peptidome tile of HUWE1 displayed on T7 phage; position as printed (protein, UniProt Q7Z6Z7 2296-2485, looked up, fragment)
chain: PGEAEVQEEDHDVTQTEVADGDIMDGEAETDSVVIAGQPEVLSSQEMQVENELEDLIDELLERDGGSGNSTIIVSRSGEDESQEDVLMDEAPSNLSQASTLQANREDSMNILDPEDEEEHTQEEDSSGSNEDEDDSQDEEEEEEEDEEDDQEDDEGEEGDEDDDDDGSEMELDEDYPDMNASPLVRFERF
modifications: T7 phage display
notes: position as printed
B7: Hyls1 1-90: 90-aa human peptidome tile displayed on T7 phage (protein, UniProt Q96M11 1-90, looked up, fragment)
chain: MEELLPDGQIWANMDPEERMLAAATAFTHICAGQGEGDVRREAQSIQYDPYSKASVAPGKRPALPVQLQYPHVESNVPSETVSEASQRLR
modifications: displayed on T7 phage
B8: MAP3K14 496-585: 90-aa human peptidome tile displayed on T7 phage (protein, UniProt Q99558 496-585, looked up, fragment)
chain: LGQALEGLEYLHSRRILHGDVKADNVLLSSDGSHAALCDFGHAVCLQPDGLGKSLLTGDYIPGTETHMAPEVVLGRSCDAKVDVWSSCCM
modifications: displayed on T7 phage
B9: HUWE1 2341-2430: 90-aa human peptidome tile of HUWE1 displayed on T7 phage (protein, UniProt Q7Z6Z7 2341-2430, looked up, fragment)
chain: EMQVENELEDLIDELLERDGGSGNSTIIVSRSGEDESQEDVLMDEAPSNLSQASTLQANREDSMNILDPEDEEEHTQEEDSSGSNEDEDD
modifications: displayed on T7 phage
B10: HMGXB4 226-315: 90-aa human peptidome tile displayed on T7 phage (protein, UniProt Q9UGU5 226-315, looked up, fragment)
chain: KSARDEQGALLLGHELQSFLKTARKKHKSSSDAHSSPGPEGCGSDASQFAESHSANLDLSGLEPILVESDSSSGGELEAGELVIDDSYRE
modifications: displayed on T7 phage
B11: LYST 1171-1260: 90-aa human peptidome tile displayed on T7 phage (protein, UniProt Q99698 1171-1260, looked up, fragment)
chain: NYSADFEHNDAMTEKSHQSAEELSSQPGDFSEEAEDSQCCSFKLLVEEEGYEADSESNPEDGETQDDGVDLKSETEGFSASSSPNDLLEN
modifications: displayed on T7 phage
B12: TNS3 451-540: 90-aa human peptidome tile displayed on T7 phage (protein, UniProt Q68CZ2 451-540, looked up, fragment)
chain: YSGTRHVVPAQVHVNGDAALKDRETDILDDEMPHHDLHSVDSLGTLSSSEGPQSAHLGPFTCHKSSQNSLLSDGFGSNVGEDPQGTLVPD
modifications: displayed on T7 phage
B13: Efs 181-270: 90-aa human peptidome tile displayed on T7 phage (protein, UniProt O43281 181-270, looked up, fragment)
chain: PGEDDAPYDVPLTPKPPAELEPDLEWEGGREPGPPIYAAPSNLKRASALLNLYEAPEELLADGEGGGTDEGIYDVPLLGPEAPPSPEPPG
modifications: displayed on T7 phage
B14: hoxa2 271-360: 90-aa human peptidome tile displayed on T7 phage (protein, UniProt O43364 271-360, looked up, fragment)
chain: SFPVSPLTSNEKNLKHFQHQSPTVPNCLSTMGQNCGAGLNNDSPEALEVPSLQDFSVFSTDSCLQLSDAVSPSLPGSLDSPVDISADSLD
modifications: displayed on T7 phage
B15: ANAPC1 1-90: 90-aa human peptidome tile displayed on T7 phage (protein, UniProt Q9H1A4 1-90, looked up, fragment)
chain: MSNFYEERTTMIAARDLQEFVPFGRDHCKHHPNALNLQLRQLQPASELWSSDGAAGLVGSLQEVTIHEKQKESWQLRKGVSEIGEDVDYD
modifications: displayed on T7 phage

What follows are molecules tested against T1, Caspase-1 (assay: SEPARATE assay: human peptidome library digest with Caspase-1). Conditions: top 20 enriched peptides, human library (90-aa tiles); normalized read counts digest vs mock digest.
Assay type: biochemical
Experimental: Streptavidin-coupled magnetic beads (Dynabeads M-280 Streptavidin, ThermoFisher Scientific) were washed (TBS, pH 7.4, 0.01% NP40) and resuspended in binding buffer (TBS, pH 7.4, 0.001% NP40) containing 2E9 plaque forming units per 10 μl of bead slurry. End-over-end mixing at room temperature was performed for one hour. Phage-coated beads were washed three times with wash buffer and transferred into two protein LoBind Eppendorf tubes blocked with TBS, pH 7.4 containing 1% BSA.
Digestion occurred overnight at room temperature with end-over-end rotation. […] To remove any residual biotinylated phage that may have been nonspecifically released, the 150 μl supernatant of the quenched digest reaction is then incubated with a fresh 10 μl of slurry volume M280 streptavidin beads (pre-washed three times with wash buffer) in a LoBind Eppendorf tube blocked with TBS, pH 7.4 containing 1% BSA at room temperature for one hour with end-over-end rotation.
10 μl slurry volume of protein G magnetic dynabeads were washed in buffer (TBS, pH 7.4, 0.01% NP40) and then resuspended in 50 μl TBS, pH 7.4, 0.01% NP40 containing 4 μg of M2 FLAG antibody for thirty minutes at room temperature with end-over-end rotation. The 150 μl quenched digest reaction is added to the 10 μl FLAG-coated Protein G beads and incubated for 60 minutes at room temperature with end-over-end rotation to capture phage particles released at the protease digest step. Beads are rinsed once with 100 μl wash buffer and stored at −80° C. until PCR amplification.
Library PCR preparation, high-throughput DNA sequencing, and peptide read count data generation was performed as described previously.^44 Briefly, library peptide inserts are amplified by resuspending 10 μl of FLAG-coated Protein G beads in PCR1 master mix containing the T7-Pep2_PCR1_F forward primer ([…]) (SEQ ID NO:3) and a T7-SEPARATE vector specific reverse primer ([…]) (SEQ ID NO:4), which includes an adapter sequence for sample-specific barcoding and Illumina P7 adapter incorporation during a subsequent PCR2 reaction. The PCR2 amplicons are pooled and sequenced using an Illumina NextSeq instrument in standard output mode to obtain single-end 50 nucleotide reads. Dual indexed sample demultiplexing and clonal read count determination were performed using exact sequence matching. […] To calculate the normalization factor, 100 peptides were randomly selected from the mock digest conditions with a read count ranging between 10 and 40. The median read count value for these 100 peptides is calculated for each sample. The random peptide selection and median calculation is performed 20 times and the average of the 20 median values is calculated for each sample. Finally, the normalization factor is calculated by dividing the average median value for each sample by that for one of the mock digest conditions. Read counts are then converted to normalized read counts by dividing each sample's read count values by the normalization factor. Fold enrichments are calculated for each peptide by dividing their normalized read counts in the digest condition by the normalized read counts in the mock digest condition. The fold enrichments can be visualized in an MA plot by transforming the normalized read count data into a log ratio (M, on the y-axis) and a mean average (A, on the x-axis) between the digest and mock digest conditions.

First: B1
Second: B2
The Caspase1 fold change of the first is higher: 16.76 fold for the first, 16.39 fold for the second.

First: B3
Second: B4
The Caspase1 fold change of the first is higher: 19.1 fold for the first, 17.58 fold for the second.

Compared with B5, B6 is higher in Caspase1 fold change: 18.78 fold for the first, 22.71 fold for the second.

Going from B7 to B8, the Caspase1 fold change falls from 19.74 fold to 16.5 fold.

Going from B9 to B10, the Caspase1 fold change falls from 16.55 fold to 16.49 fold.

Compared with B11, B12 is lower in Caspase1 fold change: 21.04 fold for the first, 18.67 fold for the second.

Going from B13 to B14, the Caspase1 fold change falls from 21.06 fold to 17.06 fold.

In the case of B15, the Caspase1 fold change is reported as 16.35 fold.
